Measurements: paper PMC10563079 (Molecules, 2023)
Values belong to the molecule of their own block, whether it stands above or below them. Bridge positions count the residues as written; N and C are the ends. Ends that are not written are not given here. Peptide text beside a SMILES is read from it.

Tests used:
sPHGDH (1-307) = target: T1, sPHGDH (1-307) (Homo sapiens, UniProt O43175); experiment: sPHGDH enzyme activity assay (NADH fluorescence); assay type: biochemical; conditions: sPHGDH; for Inhibition Rate (%): peptide concentration of 50 µM
T1 construct: the truncated version of PHGDH (sPHGDH, 1-307); made in house
T1 sequence (O43175 1-307): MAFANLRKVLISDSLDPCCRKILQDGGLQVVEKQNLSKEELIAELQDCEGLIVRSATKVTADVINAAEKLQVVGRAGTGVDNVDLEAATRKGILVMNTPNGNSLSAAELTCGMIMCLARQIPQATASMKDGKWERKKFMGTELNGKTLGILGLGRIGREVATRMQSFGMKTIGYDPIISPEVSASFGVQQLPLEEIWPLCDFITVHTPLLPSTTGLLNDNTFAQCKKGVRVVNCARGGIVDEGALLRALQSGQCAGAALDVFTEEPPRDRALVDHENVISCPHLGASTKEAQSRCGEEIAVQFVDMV
Method: (§1) PHGDH activity in the presence of peptides was measured in 96-well plates (100 μL per well) at 25 °C, through monitoring the NADH fluorescence (excitation at 360 nm and emission at 460 nm) over time. PAST1 and its substrate glutamate were also included in order to prevent product inhibition. In the enzyme assays, protein expression and purification, including the truncated version of PHGDH (sPHGDH, 1-307), the full-length PHGDH (1-533), and PAST1, were carried out as described in our previous papers. To evaluate the effects of peptides on enzyme activity, the peptides were pre-incubated with enzyme samples (sPHGDH 453.3 nM or PHGDH 30.9 nM) in the assay buffer (HEPES 50 mM, pH 7.5, 10 mM MgCl2, and 1 mM EDTA) for 12 h. Then, 1.98 μM PAST1, 1 mM NAD^+, and 30 mM glutamate were added and pre-incubated for 10 min before initiating the enzyme reaction via the addition of the substrate (1 mM 3-PG). Fluorescence signals were recorded for 3 min with the kinetics-reading mode of the Biotek plate reader (Synergy). IC50 values were obtained through fitting the data using a three-parameter Hill model of the graph of log dose against the percentage inhibition from three repeated experiments. For those peptides containing two disulfide bonds, a second step of oxidation reaction was carried out to generate the second disulfide pair. […] The purified Acm-protected peptide was then treated with iodine (I2, 1 wt% in MeOH), dropwise under acidic conditions until the solution became brown.

[1] = target: T2, full-length PHGDH (1-533) (Homo sapiens, UniProt O43175); experiment: full-length PHGDH enzyme activity assay (NADH fluorescence); assay type: biochemical; conditions: read-out: IC50 value (μM), full-length PHGDH activity
T2 construct: the full-length PHGDH (1-533); made in house
T2 sequence (O43175 1-533): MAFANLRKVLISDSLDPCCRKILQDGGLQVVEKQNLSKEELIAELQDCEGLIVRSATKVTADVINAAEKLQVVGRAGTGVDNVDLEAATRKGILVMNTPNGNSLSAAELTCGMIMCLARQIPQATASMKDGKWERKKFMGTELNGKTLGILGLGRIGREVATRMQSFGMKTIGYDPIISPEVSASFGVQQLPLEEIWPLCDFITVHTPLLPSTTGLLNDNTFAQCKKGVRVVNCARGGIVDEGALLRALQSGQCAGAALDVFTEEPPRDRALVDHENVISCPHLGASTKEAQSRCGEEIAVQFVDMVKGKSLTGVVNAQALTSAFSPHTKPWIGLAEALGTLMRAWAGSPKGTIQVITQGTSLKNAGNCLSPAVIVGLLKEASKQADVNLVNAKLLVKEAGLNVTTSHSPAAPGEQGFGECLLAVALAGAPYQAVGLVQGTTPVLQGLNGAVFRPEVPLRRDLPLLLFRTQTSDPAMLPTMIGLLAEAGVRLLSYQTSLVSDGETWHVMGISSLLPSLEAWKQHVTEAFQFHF
Method: as §1

[2] = target: truncated version of PHGDH (sPHGDH, 1-307) (human) (UniProt O43175)

Molecule: CSCC[C@@H]1NC(=O)[C@H]([C@@H](C)O)NC(=O)[C@H](CC(C)C)NC(=O)[C@H]([C@@H](C)O)NC(=O)[C@H](C)NC(=O)[C@H](CCC(N)=O)NC(=O)[C@@H]2CCCN2C(=O)[C@H]([C@@H](C)O)NC(=O)[C@@H](NC(C)=O)CSSC[C@@H](C(=O)O)NC(=O)[C@H](CCCCN)NC(=O)[C@H](CCCCN)NC(=O)[C@H](CCC(=O)O)NC(=O)[C@H](CCC(=O)O)NC(=O)[C@H](Cc2c[nH]c3ccccc23)NC(=O)[C@H](CCCCN)NC(=O)CNC(=O)[C@H](CC(=O)O)NC(=O)[C@H](CCCCN)NC1=O [Cyc1-7, C1TPQA TLTMK DGKWE EKKC19] (Ac-CTPQATLTMKDGKWEEKKC-OH; disulfide 1-19)
IC50 [1]: 23.5 ± 2 µM
IC50 (sPHGDH (1-307); 12 h pre-incubation, read-out: IC50 Value): 5.6 ± 1.2 µM

Molecule: C1TPQA TASMK DGKWE RKKC19 (CTPQATASMKDGKWERKKC; disulfide 1-19; not fully specified (N-terminus); printed as C_1_TPQATASMKDGKWERKKC_19_) [Cyc1-1, head-to-tail disulfide-cyclized peptide (C1-C19) from the PHGDH dimerization loop]
Inhibition Rate (%) (sPHGDH (1-307)): 40%
inhibitory activity on sPHGDH (in words) (sPHGDH (1-307)): limited activity

Molecule: C1TPQA TLLMK DGKWE EKKC19 (CTPQATLLMKDGKWEEKKC; disulfide 1-19; not fully specified (N-terminus); printed as C_1_TPQA TLLMK DGKWE EKKC_19_) [Cyc1-8, cyc1-2 with substitution S8L]
Inhibition Rate (%) (sPHGDH (1-307)): None
inhibitory activity on sPHGDH (in words) (sPHGDH (1-307)): completely eliminated the activity

Molecule: CSCC[C@@H]1NC(=O)[C@H](CO)NC(=O)[C@H](C)NC(=O)[C@H]([C@@H](C)O)NC(=O)[C@H](C)NC(=O)[C@H](CCC(N)=O)NC(=O)[C@@H]2CCCN2C(=O)[C@H]([C@@H](C)O)NC(=O)[C@@H](NC(C)=O)CSSC[C@@H](C(=O)O)NC(=O)[C@H](CCCCN)NC(=O)[C@H](CCCCN)NC(=O)[C@H](CCC(=O)O)NC(=O)[C@H](CCC(N)=O)NC(=O)[C@H](Cc2c[nH]c3ccccc23)NC(=O)[C@H](CO)NC(=O)CNC(=O)[C@H](CC(N)=O)NC(=O)[C@H](CCCCN)NC1=O [Cyc1-9, C1TPQA TASMK NGSWQ EKKC19] (Ac-CTPQATASMKNGSWQEKKC-OH; disulfide 1-19)
IC50 [1]: 56.1 ± 3.4 µM

Molecule: C1TPQA TKSML DGKWE EKKC19 (CTPQATKSMLDGKWEEKKC; disulfide 1-19; not fully specified (N-terminus); printed as C_1_TPQA TKSML DGKWE EKKC_19_) [Cyc1-3, single disulfide cyclic peptide with substitution A7K]
Inhibition Rate (%) (sPHGDH (1-307)): 19%
inhibitory activity on sPHGDH (in words) (sPHGDH (1-307)): largely decreased or abolished the activity

Molecule: CSCC[C@@H]1NC(=O)[C@H](CO)NC(=O)[C@H](CC(C)C)NC(=O)[C@H]([C@@H](C)O)NC(=O)[C@H](C)NC(=O)[C@H](CCC(N)=O)NC(=O)[C@@H]2CCCN2C(=O)[C@H]([C@@H](C)O)NC(=O)[C@@H](NC(C)=O)CSSC[C@@H](C(=O)O)NC(=O)[C@H](CCCCN)NC(=O)[C@H](CCCCN)NC(=O)[C@H](CCC(=O)O)NC(=O)[C@H](CCC(=O)O)NC(=O)[C@H](Cc2c[nH]c3ccccc23)NC(=O)[C@H](CCCCN)NC(=O)CNC(=O)[C@H](CC(=O)O)NC(=O)[C@H](CCCCN)NC1=O [Cyc1-2, C1TPQA TLSMK DGKWE EKKC19] (Ac-CTPQATLSMKDGKWEEKKC-OH; disulfide 1-19)
IC50 [1]: 20.1 ± 2.6 µM

Molecule: C1TPQA TESML RGKWE EKKC19 (CTPQATESMLRGKWEEKKC; disulfide 1-19; not fully specified (N-terminus); printed as C_1_TPQA TESML RGKWE EKKC_19_) [Cyc1-4, single disulfide cyclic peptide with A7E and D11R]
Inhibition Rate (%) (sPHGDH (1-307)): None
inhibitory activity on sPHGDH (in words) (sPHGDH (1-307)): largely decreased or abolished the activity

The remaining lines, values ahead:

Inhibition Rate (%) (sPHGDH (1-307)): 44%
Molecule: C1TPQA TAC8MW DGKWC15 RKKC19 (CTPQATACMWDGKWCRKKC; disulfide 1-19, 8-15; not fully specified (N-terminus); printed as C_1_TPQA TAC_8_MW DGKWC_15_ RKKC_19_) [Cyc2-4, cyc2-1 with K10W]

Inhibition Rate (%) (sPHGDH (1-307)): None
inhibitory activity on sPHGDH (in words) (sPHGDH (1-307)): inactive
Molecule: C1TPQA TLSMK NGSWQ EKKC19 (CTPQATLSMKNGSWQEKKC; disulfide 1-19; not fully specified (N-terminus); printed as C_1_TPQA TLSMK NGSWQ EKKC_19_) [Cyc1-10, cyc1-9 with added A7L]

Inhibition Rate (%) (sPHGDH (1-307)): 27%
Molecule: C1TPQA TAC8MK DGKWC15 WKKC19 (CTPQATACMKDGKWCWKKC; disulfide 1-19, 8-15; not fully specified (N-terminus); printed as C_1_TPQA TAC_8_MK DGKWC_15_ WKKC_19_) [Cyc2-5, cyc2-1 with R16W]

IC50 of inhibition of sPHGDH enzyme activity (NADH fluorescence); the pair blocked is the sPHGDH homo-dimer (m1+m1) [2]: 9.4 µM
B1: double constrained cyclic peptide cyc2-2 (peptide)
peptide: CTPQATACMLDGKWCRKKC
modifications: disulfide 1-19, 8-15; not fully specified (N-terminus); printed as C_1_TPQA TAC_8_ML DGKWC_15_ RKKC_19_

Inhibition rate of sPHGDH enzyme activity (NADH fluorescence) at 50 µM peptide; the pair blocked is the sPHGDH homo-dimer (m1+m1) [2]: 19%
B2: cyclic peptide cyc1-3 (peptide)
peptide: CTPQATKSMLDGKWEEKKC
modifications: disulfide 1-19; not fully specified (N-terminus); printed as C_1_TPQA TKSML DGKWE EKKC_19_

IC50 of inhibition of sPHGDH enzyme activity (NADH fluorescence); the pair blocked is the sPHGDH homo-dimer (m1+m1) [2]: 5.6 µM
B3: cyclic peptide cyc1-7 (peptide)
peptide: CTPQATLTMKDGKWEEKKC
modifications: disulfide 1-19; not fully specified (N-terminus); printed as C_1_TPQA TLTMK DGKWE EKKC_19_

Inhibition rate of sPHGDH enzyme activity (NADH fluorescence) at 50 µM peptide; the pair blocked is the sPHGDH homo-dimer (m1+m1) [2]: 44%
B4: double constrained cyclic peptide cyc2-4 (peptide)
peptide: CTPQATACMWDGKWCRKKC
modifications: disulfide 1-19, 8-15; not fully specified (N-terminus); printed as C_1_TPQA TAC_8_MW DGKWC_15_ RKKC_19_

Inhibition rate of sPHGDH enzyme activity (NADH fluorescence) at 50 µM peptide; the pair blocked is the sPHGDH homo-dimer (m1+m1) [2]: 40%
B5: cyclic peptide cyc1-1 (peptide)
peptide: CTPQATASMKDGKWERKKC
modifications: disulfide 1-19; not fully specified (N-terminus); printed as C_1_TPQATASMKDGKWERKKC_19_

IC50 of inhibition of sPHGDH enzyme activity (NADH fluorescence); the pair blocked is the sPHGDH homo-dimer (m1+m1) [2]: 15 µM
B6: double constrained cyclic peptide cyc2-6 (peptide)
peptide: CTPQATACMLDGKWCEKKC
modifications: disulfide 1-19, 8-15; not fully specified (N-terminus); printed as C_1_TPQA TAC_8_ML DGKWC_15_ EKKC_19_

Inhibition rate of sPHGDH enzyme activity (NADH fluorescence) at 50 µM peptide; the pair blocked is the sPHGDH homo-dimer (m1+m1) [2]: 27%
B7: double constrained cyclic peptide cyc2-5 (peptide)
peptide: CTPQATACMKDGKWCWKKC
modifications: disulfide 1-19, 8-15; not fully specified (N-terminus); printed as C_1_TPQA TAC_8_MK DGKWC_15_ WKKC_19_
